B1: #44 VH3VK3 humanised hIgG1 (antibody, V domains shown)
VH: QVQLQESGPGLVKPSETLSLTCTVSGIDLSSYAMAWVRQAPGKGLEWIGCIDRRGGTFYASWVKGRFTISKTSTTVDLQMTSLTAEDTATYFCARDSGAFDPWGQGTLVTVSS
VL: DIQMTQSPSSLSASVGDRVTITCQASQSVYDNYLAWYQQKPGQPPKLLIHAASNLASGVPSRFKGSGSGTEFTLTISSLQPDDFATYYCLGEFSCTTTDCNVFGGGTKVEIK
notes: also called VH3Vκ3; Clone VH3VK3 (A)
B2: #44 VH3VK4 humanised hIgG1 (antibody, V domains shown)
VH: B1 VH
VL: B1 VL with K64S
notes: also called VH3Vκ4; Clone VH3VK4 (B)
B3: #44 VH1VK2 humanised hIgG1 (antibody, V domains shown)
VH: QSVQESGGGLVKPSETLSLTCTVSGIDLSSYAMAWVRQAPGKGLEWIGCIDRRGGTFYASWVKGRFTISKTSTTVDLKMTSLTAEDTATYFCARDSGAFDPWGQGTLVTVSS
VL: B1 VL with D1Q, Q3V
notes: also called VH1Vκ2
B4: #44 VH2VK1 humanised hIgG1 (antibody, V domains shown)
VH: B3 VH with G8P, K78Q
VL: B1 VL with D1Q, Q3V, G58R, P81C, K108E, E110V
notes: also called VH2Vκ1
B5: #44 VH1VK4 humanised hIgG1 (antibody, V domains shown)
VH: B3 VH
VL: B1 VL with K64S
notes: also called VH1Vκ4
B6: #44 VH1VK1 humanised hIgG1 (antibody, V domains shown)
VH: B3 VH
VL: B1 VL with D1Q, Q3V, G58R, P81C, K108E, E110V
notes: also called VH1Vκ1
B7: #44 VH5VK3 humanised hIgG1 (antibody, V domains shown)
VH: QVQLQESGPGLVKPSETLSLTCTVSGIDLSSYAMAWVRQAPGKGLEWIGCIDRRGGTFYASWVKGRFTISRDNSKNTLDLQMTSLTAEDTATYYCARDSGAFDPWGQGTLVTVSS
VL: B1 VL
notes: also called VH5Vκ3
B8: #44 VH1VK3 humanised hIgG1 (antibody, V domains shown)
VH: B3 VH
VL: B1 VL
notes: also called VH1Vκ3
B9: #44 VH5VK1 humanised hIgG1 (antibody, V domains shown)
VH: B7 VH
VL: B1 VL with D1Q, Q3V, G58R, P81C, K108E, E110V
notes: also called VH5Vκ1
B10: #44 VH4VK1 humanised hIgG1 (antibody, V domains shown)
VH: B7 VH with R71K, N73T, N76T, L78V, Y94F
VL: B1 VL with D1Q, Q3V, G58R, P81C, K108E, E110V
notes: also called VH4Vκ1
B11: #44 VH5VK4 humanised hIgG1 (antibody, V domains shown)
VH: B7 VH
VL: B1 VL with K64S
notes: also called VH5Vκ4
B12: #44 VH5VK2 humanised hIgG1 (antibody, V domains shown)
VH: B7 VH
VL: B1 VL with D1Q, Q3V
notes: also called VH5Vκ2
B13: #44 VH2VK4 humanised hIgG1 (antibody, V domains shown)
VH: B3 VH with G8P, K78Q
VL: B1 VL with K64S
notes: also called VH2Vκ4
B14: #44 VH2VK3 humanised hIgG1 (antibody, V domains shown)
VH: B3 VH with G8P, K78Q
VL: B1 VL
notes: also called VH2Vκ3
B15: #44 VH2VK2 humanised hIgG1 (antibody, V domains shown)
VH: B3 VH with G8P, K78Q
VL: B1 VL with D1Q, Q3V
notes: also called VH2Vκ2

Residue numbers refer to the chain shown, from its start.

For orientation: Kd means the constant that tells how readily two partners part at equilibrium. One may read the koff as a measure of how fast the partners let go of each other. Broadly, the kon is the second-order rate constant of association.

aggregated (oligomeric) P301S 2N4R tau, pHrodo-labelled, sequence (P10636 other isoform, or with tags, fused parts or gaps P301S P301S): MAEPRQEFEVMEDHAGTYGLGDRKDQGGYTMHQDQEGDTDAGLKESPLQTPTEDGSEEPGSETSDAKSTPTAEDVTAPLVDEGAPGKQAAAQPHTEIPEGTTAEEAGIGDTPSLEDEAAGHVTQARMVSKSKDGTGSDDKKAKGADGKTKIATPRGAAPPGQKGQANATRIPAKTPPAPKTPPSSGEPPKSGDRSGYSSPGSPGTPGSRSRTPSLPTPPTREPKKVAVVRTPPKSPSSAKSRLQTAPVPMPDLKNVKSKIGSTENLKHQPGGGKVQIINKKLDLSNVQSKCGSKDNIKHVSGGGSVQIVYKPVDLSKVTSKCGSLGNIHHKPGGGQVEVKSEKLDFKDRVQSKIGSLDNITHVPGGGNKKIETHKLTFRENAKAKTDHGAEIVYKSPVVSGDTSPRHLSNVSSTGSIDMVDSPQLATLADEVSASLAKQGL

One assay deals with monomeric P301S 2N4R tau, pHrodo-labelled (human, UniProt P10636 1-758, pHrodo Red maleimide label). Briefly: cell-based or functional assay.
monomeric P301S 2N4R tau, pHrodo-labelled, sequence (P10636 other isoform, or with tags, fused parts or gaps P301S P301S): as above
Take B1: the “increase of monomeric tau uptake into human iPSC-derived microglia” value stood at 16.1%, the “inhibition of monomeric tau uptake into human iPSC-derived astrocytes” value was 85.2% and the “inhibition of monomeric tau uptake into human iPSC-derived neurons” value is 48.4%.
For the molecule B2, the “increase of monomeric tau uptake into human iPSC-derived microglia” value was 80.3%, the “inhibition of monomeric tau uptake into human iPSC-derived astrocytes” value came out at 87.6% and the “inhibition of monomeric tau uptake into human iPSC-derived neurons” value turned out to be 43.1%.

Another assay has as its target aggregated (oligomeric) P301S 2N4R tau, pHrodo-labelled (human, UniProt P10636 1-758, pHrodo Red maleimide label). The assay can be described thus: cell-based or functional assay.
Regarding B1, the “increase of aggregated tau uptake into human iPSC-derived microglia” value stood at 77.7%, the “inhibition of aggregated tau uptake into human iPSC-derived astrocytes” value is 46.4% and the “inhibition of aggregated tau uptake into human iPSC-derived neurons” value turned out to be 30.6%.
Regarding B2, the “increase of aggregated tau uptake into human iPSC-derived microglia” value turned out to be 83.9%, the “inhibition of aggregated tau uptake into human iPSC-derived astrocytes” value turned out to be 45% and the “inhibition of aggregated tau uptake into human iPSC-derived neurons” value was 33.3%.

For another assay, the target named is T1, full length recombinant human 2N4R tau (human, UniProt P10636 1-758).
T1 construct: bought from rPeptide; pHrodo Red maleimide-labelled where it stands in uptake assays; also called tau1-441; full length tau
T1 sequence (P10636 other isoform, or with tags, fused parts or gaps limits assumed): as the sequence (P10636 other isoform, or with tags, fused parts or gaps P301S P301S) above, with S301P counted along it
Briefly: SPR SCK, IgG on Protein A, tau in flow. Here is the method:
21.5 Assessment of antibody binding to tau (Biacore SCK analysis): Binding of anti-tau hIgG1 to full length recombinant 2N4R tau (Rpeptide; SEQ ID NO: 2) was assessed using the Biacore T200 (GE Healthcare, Chicago, IL, USA) running Biacore T200 Evaluation Software V2.0.1. hIgG1 were immobilised on a Protein A capture sensor chip in running buffer (HBS-EP+ buffer containing 1 mg/mL BSA) at 25° C., captured to ˜50 RU at 10 μL/min. For single-cycle kinetics experiments, recombinant 2N4R tau was flowed at concentrations ranging from 1.25 nM to 10 nM (2-fold dilutions) with an association time of 60 s and a dissociation time of 200 s. Curves were compared to a reference cell that was mock immobilized (no antibody present).
As to B1, the equilibrium dissociation constant (Kd) is 7.71 nM, the “Relative KD (to VH0VK0)” value is 2.01, the off-rate constant (koff) turned out to be 0.0341 s⁻¹ and the kon came out at 4.43e+06 M⁻¹ s⁻¹.
In the case of B3, the equilibrium dissociation constant (Kd) worked out at 4.26 nM, the “Relative KD (to VH0VK0)” value came to 1.11, the dissociation rate constant (koff) stood at 0.0232 s⁻¹ and the kon is 5.43e+06 M⁻¹ s⁻¹.
Taken in the same sequence, the figures for B4 were 7.94 nM, 2.07, 0.021 s⁻¹ and 2.64e+06 M⁻¹ s⁻¹.
For the molecule B2, the Kd turned out to be 7.02 nM, the “Relative KD (to VH0VK0)” value was found to be 1.83, the koff came to 0.043 s⁻¹ and the kon amounted to 6.12e+06 M⁻¹ s⁻¹.
With B5, the Kd was 4.15 nM, the “Relative KD (to VH0VK0)” value is 1.08, the dissociation rate constant (koff) was 0.0208 s⁻¹ and the kon worked out at 5.01e+06 M⁻¹ s⁻¹.
As to B6, the Kd came to 3.16 nM, the “Relative KD (to VH0VK0)” value came to 0.83, the koff is 0.0232 s⁻¹ and the kon turned out to be 7.35e+06 M⁻¹ s⁻¹.
Take B7: the equilibrium dissociation constant (Kd) turned out to be 14.2 nM, the “Relative KD (to VH0VK0)” value is 3.71, the off-rate (koff) was 0.0406 s⁻¹ and the on-rate (kon) was found to be 2.86e+06 M⁻¹ s⁻¹.
With B8, the dissociation constant Kd turned out to be 5 nM, the “Relative KD (to VH0VK0)” value is 1.31, the koff came out at 0.0129 s⁻¹ and the on-rate constant (kon) worked out at 2.58e+06 M⁻¹ s⁻¹.
The like results for B9 were, in that order, 8.31 nM, 2.17, 0.187 s⁻¹ and 2.25e+07 M⁻¹ s⁻¹.
The like results for B10 were, in that order, 6.81 nM, 1.78, 0.03 s⁻¹ and 4.4e+06 M⁻¹ s⁻¹.
B11: the Kd amounted to 9.63 nM, the “Relative KD (to VH0VK0)” value came to 2.51, the koff is 0.0684 s⁻¹ and the kon was determined as 7.11e+06 M⁻¹ s⁻¹.
For B12, the Kd amounted to 12.6 nM and the “Relative KD (to VH0VK0)” value is 3.29.
For B13, the Kd is 5.33 nM, the “Relative KD (to VH0VK0)” value came to 1.39, the dissociation rate constant (koff) amounted to 0.0195 s⁻¹ and the kon stood at 3.66e+06 M⁻¹ s⁻¹.
For the molecule B14, the dissociation constant Kd was found to be 4.52 nM, the “Relative KD (to VH0VK0)” value was determined as 1.18, the koff is 0.0187 s⁻¹ and the kon came out at 4.14e+06 M⁻¹ s⁻¹.
On to B15, for which the Kd was 5 nM, the “Relative KD (to VH0VK0)” value is 1.31, the koff was 0.0182 s⁻¹ and the kon worked out at 3.63e+06 M⁻¹ s⁻¹.

The target of another assay is T1, full length recombinant human 2N4R tau. The assay can be described thus: SPR MCK, IgG on Protein A, tau in flow. Here is the method:
Slight variations in RMAX are considered likely to be due to differences in ligand capture and not reflective of significant variation in antibody binding characteristics.
22.2 Assessment of antibody binding to tau (Biacore MCK analysis): Binding of anti-tau hIgG1 to full length recombinant 2N4R tau (Rpeptide; SEQ ID NO: 2) was assessed using the Biacore T200 (GE Healthcare, Chicago, IL, USA) running Biacore T200 Evaluation Software V2.0.1. hIgG1 were immobilised on a Protein A capture sensor chip in running buffer (HBS-EP+ buffer containing 1 mg/mL BSA) at 25° C., captured to ˜50 RU at […]. For multi-cycle kinetics experiments, recombinant 2N4R tau was flowed at concentrations ranging from 0.39 nM to 12.5 nM in running buffer at 40 μL/min, with an association time of 60 s and a dissociation time of 200 s. Curves were compared to a reference cell that was mock immobilized (no antibody present).
On to B1, for which the Kd amounted to 5.7 nM, the “Relative KD (to VH0VK0)” value was determined as 1.75, the off-rate constant (koff) was 0.0927 s⁻¹ and the kon was found to be 1.63e+07 M⁻¹ s⁻¹.
Taken in the same sequence, the figures for B2 were 6.57 nM, 2.02, 0.0618 s⁻¹ and 9.4e+06 M⁻¹ s⁻¹.

In the next assay the target is T2, Bovine serum albumin (bovine, UniProt P02769 25-607).
T2 construct: also called BSA
T2 sequence (P02769 25-607 limits assumed): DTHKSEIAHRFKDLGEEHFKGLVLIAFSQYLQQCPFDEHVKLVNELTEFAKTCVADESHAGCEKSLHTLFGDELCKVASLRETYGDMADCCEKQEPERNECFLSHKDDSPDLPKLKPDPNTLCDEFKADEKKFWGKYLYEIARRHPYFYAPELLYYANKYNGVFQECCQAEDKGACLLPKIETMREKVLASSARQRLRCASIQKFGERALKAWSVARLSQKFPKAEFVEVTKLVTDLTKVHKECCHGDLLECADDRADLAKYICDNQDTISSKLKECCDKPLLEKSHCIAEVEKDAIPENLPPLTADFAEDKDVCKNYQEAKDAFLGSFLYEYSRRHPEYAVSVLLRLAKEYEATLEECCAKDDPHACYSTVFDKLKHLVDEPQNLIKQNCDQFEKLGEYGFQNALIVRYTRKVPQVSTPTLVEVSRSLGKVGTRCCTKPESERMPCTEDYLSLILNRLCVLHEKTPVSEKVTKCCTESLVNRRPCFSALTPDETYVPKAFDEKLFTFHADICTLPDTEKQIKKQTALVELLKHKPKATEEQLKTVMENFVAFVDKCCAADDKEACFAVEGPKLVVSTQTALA
Briefly: ELISA on 1% BSA, HEK supernatant, anti-human IgG-HRP, n=1. Here is the method: FIG. 7. A panel of humanised anti-tau IgG bind to full length recombinant 2N4R tau in an ELISA format. Supernatants from HEK cells transiently transfected with each IgG clone were tested at 1:100 for binding to full length recombinant 2N4R tau (solid bars). […] Binding of anti-tau hIgG1 was detected using an HRP-conjugated anti-human secondary antibody and data are shown from a representative experiment (n=1 replicate).
Antigen was removed from wells and the plates were then blocked for 1 hour at RT with 5% dried milk in 1×TBS. Blocking solution was removed, HEK293 cell supernatant (1:100 in 1% BSA/1×TBS) was added to relevant wells, and plates were incubated for 1 hour at RT with gentle shaking. Plates were then washed four times with TBS/0.1% Tween (TBST). Goat anti-human IgG-HRP antibody (Thermo Fisher Scientific, Waltham, MA, USA), diluted 1:2000 in 5% milk/TBS, was added to each well and plates were incubated for 1 hour at RT with gentle shaking before being washed four times with TBST. 3,3′,5,5′-tetramethylbenzidine (TMB) ELISA solution was added to each well and plates were incubated for 15 mins at RT. An equal volume of 1 M sulfuric acid was added to each well and OD was measured at 450 nm.
A general note: ELISA stands for enzyme-linked immunosorbent assay.
On to B1, for which the binding result was “no binding (tested: supernatant 1:100)”.
On to B3, for which the binding result is listed as “no binding (tested: supernatant 1:100)”.
Still for that read-out and setting: with B4 the entry was “no binding (tested: supernatant 1:100)”.
Take B2: the binding result is “no binding (tested: supernatant 1:100)”.
As to B5, the binding result is listed as “no binding (tested: supernatant 1:100)”.
The same measure, in the same setting: the value for B6 was “no binding (tested: supernatant 1:100)”.
As to B7, the binding result is “no binding (tested: supernatant 1:100)”.
As to B8, the binding result is on record as “no binding (tested: supernatant 1:100)”.
Take B9: the binding result is listed as “no binding (tested: supernatant 1:100)”.
For B10, the binding result was “no binding (tested: supernatant 1:100)”.
Regarding B11, the binding result was “no binding (tested: supernatant 1:100)”.
On to B12, for which the binding result is reported as “no binding (tested: supernatant 1:100)”.
As to B13, the binding result is listed as “no binding (tested: supernatant 1:100)”.
On to B14, for which the binding result is recorded as “no binding (tested: supernatant 1:100)”.
Same read-out and setting: the value for B15 was “no binding (tested: supernatant 1:100)”.
